According to patent US20200317779A1:
Numbering of substitutions follows the chain as printed.

B1: B15 (antibody, human IgG1, lambda, L234A L235A, V domains shown)
VH: EVQLVESGGGLVQPGGSLKLSCAASGFTFNTYAMNWVRQASGKGLEWVGRIRSKYNNYATYYADSVKDRFTISRDDSKNTLYLQMNSLKTEDTAVYYCVRHGNFGNSYVSWFAYWGQGTLVTVSS
VL: QAVVTQEPSLTVSPGGTVTLTCRSSTGAVTTSNYANWVQQKPGQAPRGLIGGTNKRAPWTPARFSGSLLGGKAALTLSGAQPEDEAEYYCALWYSNLWVFGGGTKLTVLG
B2: B16 (antibody, human IgG1, lambda, L234A L235A, V domains shown)
VH: B1 VH
VL: B1 VL with G71D

Tests used:
[1] = molecular target: recombinant cynomolgus monkey CD3ε/δ heterodimer (cynomolgus monkey) (UniProt Q95LI5); experiment: BLI (Octet), antigen on anti-Penta His sensor, antibody 50 nM
[2] = molecular target: recombinant human CD3ε/δ heterodimer (human) (UniProt P07766); experiment: as above
[3] = molecular target: recombinant cynomolgus monkey CD3ε/δ heterodimer (cynomolgus monkey) (UniProt Q95LI5); experiment: ELISA, coated CD3ε/δ
[4] = molecular target: recombinant human CD3ε/δ heterodimer (human) (UniProt P07766); experiment: ELISA, coated CD3ε/δ

Sequence of recombinant cynomolgus monkey CD3ε/δ heterodimer (cynomolgus monkey) (Q95LI5 22-117, stated change not applied, chain 1 of 2): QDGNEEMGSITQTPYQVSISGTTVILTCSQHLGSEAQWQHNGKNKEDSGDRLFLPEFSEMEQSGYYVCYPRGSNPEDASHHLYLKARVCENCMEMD
Sequence of recombinant cynomolgus monkey CD3ε/δ heterodimer (cynomolgus monkey) (Q95LI8 22-105, stated change not applied, chain 2 of 2, further chain): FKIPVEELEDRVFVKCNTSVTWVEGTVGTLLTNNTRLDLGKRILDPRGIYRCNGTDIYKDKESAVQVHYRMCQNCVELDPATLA
Sequence of recombinant human CD3ε/δ heterodimer (human) (P07766 23-126, stated change not applied, chain 1 of 2): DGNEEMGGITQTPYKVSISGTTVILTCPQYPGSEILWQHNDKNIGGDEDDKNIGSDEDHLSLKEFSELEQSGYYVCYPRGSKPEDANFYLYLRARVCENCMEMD
Sequence of recombinant human CD3ε/δ heterodimer (human) (P04234 22-105, stated change not applied, chain 2 of 2, further chain): as the sequence (Q95LI8 22-105, stated change not applied, chain 2 of 2, further chain) above, with V5I, K15N, V20I, T32S, N33D, N34I, A64T, N74S, L83V counted along it

Row | Binder | Kd [1] [nM] | koff [1] [s⁻¹] | kon [1] [M⁻¹ s⁻¹] | Kd [2] [nM] | koff [2] [s⁻¹] | kon [2] [M⁻¹ s⁻¹] | Absorbance (450 nm) [3] | Absorbance (450 nm) [4]
1 | B1 | 0.627 | 0.000328 | 523000 | 0.521 | 0.000193 | 371000 | 3.16 | 2.71
2 | B2 | 0.66 | 0.000308 | 466000 | 0.445 | 0.000144 | 322000 | 2.93 | 2.37
